T1: negatively modulated GCSF receptor (GCSFR(-)) (UniProt Q99062 25-621, limits assumed, modified by S-HyNic and conjugated through HyNic-4FB bonds to a 64-base DNA oligonucleotide (SEQ. ID 2, 5' C12 amino modifier); number and sites not stated)
T1 construct: Receptor-oligonucleotide conjugate; Receptor known only by catalogue number; also called nGCSFR; nTPR
T1 sequence (looked up): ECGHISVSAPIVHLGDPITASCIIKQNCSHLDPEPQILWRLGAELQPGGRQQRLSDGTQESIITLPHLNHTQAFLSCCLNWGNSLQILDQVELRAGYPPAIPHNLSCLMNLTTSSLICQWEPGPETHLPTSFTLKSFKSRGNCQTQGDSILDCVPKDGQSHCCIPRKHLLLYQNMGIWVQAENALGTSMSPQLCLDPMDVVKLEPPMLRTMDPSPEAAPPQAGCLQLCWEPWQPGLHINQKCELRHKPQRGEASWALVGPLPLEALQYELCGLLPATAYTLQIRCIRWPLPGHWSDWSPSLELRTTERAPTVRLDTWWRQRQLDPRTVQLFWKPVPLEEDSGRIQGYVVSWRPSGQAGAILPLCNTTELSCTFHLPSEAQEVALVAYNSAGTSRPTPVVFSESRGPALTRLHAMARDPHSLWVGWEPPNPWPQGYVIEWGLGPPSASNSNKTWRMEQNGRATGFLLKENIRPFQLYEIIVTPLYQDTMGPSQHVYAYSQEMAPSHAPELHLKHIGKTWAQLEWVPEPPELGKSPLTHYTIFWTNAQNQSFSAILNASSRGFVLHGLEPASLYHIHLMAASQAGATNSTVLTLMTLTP

T2: positively modulated granulocyte colony stimulating factor receptor (pGCSFR) (UniProt Q99062 25-621, limits assumed, C-terminal Lys carries 5-FAM; C-terminal amide (CONH2); N-terminus modified by 6-(BOC-hydrazino)nicotinic acid for conjugation to the receptor; modified by Sulfo-S-4FB and conjugated through a …)
T2 construct: Receptor-peptide conjugate; Receptor known only by catalogue number
T2 sequence: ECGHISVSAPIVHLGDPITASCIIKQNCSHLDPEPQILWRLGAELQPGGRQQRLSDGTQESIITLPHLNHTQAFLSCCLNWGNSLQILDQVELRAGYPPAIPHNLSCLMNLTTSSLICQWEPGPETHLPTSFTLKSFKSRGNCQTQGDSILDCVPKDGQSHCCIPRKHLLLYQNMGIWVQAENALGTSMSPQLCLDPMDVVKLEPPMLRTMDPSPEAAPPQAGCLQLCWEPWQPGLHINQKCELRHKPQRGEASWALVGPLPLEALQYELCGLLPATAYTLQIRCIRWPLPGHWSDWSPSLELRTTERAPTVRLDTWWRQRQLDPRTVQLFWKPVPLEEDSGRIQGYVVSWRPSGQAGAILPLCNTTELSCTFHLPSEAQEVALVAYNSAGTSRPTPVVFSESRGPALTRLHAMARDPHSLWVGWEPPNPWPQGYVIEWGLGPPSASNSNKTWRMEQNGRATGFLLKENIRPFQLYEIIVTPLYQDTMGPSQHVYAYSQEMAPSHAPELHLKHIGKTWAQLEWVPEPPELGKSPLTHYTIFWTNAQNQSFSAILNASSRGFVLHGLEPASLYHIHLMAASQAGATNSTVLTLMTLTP
T2 sequence (peptide): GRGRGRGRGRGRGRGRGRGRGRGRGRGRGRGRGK


How the values were obtained:
[1] = molecular target: T1, negatively modulated GCSF receptor …; test: off-rate by negative MCM and electrokinetic concentration; 100 nM labeled drug, 1 uM negatively modulated receptor
Description: The dissociation rate of drug-receptor binding, koff was measured by monitoring the evolution of the peak of complex and fitting it with the aforementioned derived equation.

[2] = molecular target: T2, positively modulated granulocyte colony …; test: direct assay by positive MCM and electrokinetic concentration; 1 nM pGCSFR, 0-81 nM G-CSF, 30 min incubation, 30 V 15 min
From the text: The dose-response curves were plotted by fitting the experimental results with the classic second-order binding model.

| dissociative half-life [1] | Kd [2] | Binder |
| --- | --- | --- |
| 5.5 h | – | labeled G-CSF (Alexa Fluor 488) (ligand, UniProt P09919-2 31-204, looked up, Alexa Fluor 488 label (carboxylic acid succinimidyl ester); sites not stated) TPLGPASSLPQSFLLKCLEQVRKIQGDGAALQEKLCATYKLCHPEELVLLGHSLGIPWAPLSSCPSQALQLAGCLSQLHSGLFLYQGLLQALEGISPELGPTLDTLQLDVADFATTIWQQMEELGMAPALQPTQGAMPAFASAFQRRAGGVLVASHLQSFLEVSYRVLRHLAQP |
| – | ~700 pM | granulocyte colony stimulating factor (G-CSF) (ligand, UniProt P09919-2 31-204, looked up, Unlabeled Sandoz G-CSF) TPLGPASSLPQSFLLKCLEQVRKIQGDGAALQEKLCATYKLCHPEELVLLGHSLGIPWAPLSSCPSQALQLAGCLSQLHSGLFLYQGLLQALEGISPELGPTLDTLQLDVADFATTIWQQMEELGMAPALQPTQGAMPAFASAFQRRAGGVLVASHLQSFLEVSYRVLRHLAQP |

Source: patent publication US20180238915A1 (published 2018)
